According to patent US12503511 (COMPASS THERAPEUTICS, dated 2025):

Key:
[1] = molecular target: T1, murine PD-L1 expressed on cells (murine, UniProt Q9EP73 19-290); test: cell binding titration, A20 cells expressing murine PD-L1
T1 construct: whole, on cells; also called muPDL1; mouse PD-L1

[2] = molecular target: T2, purified recombinant His tagged human PD-L1 (human, UniProt Q9NZQ7 19-238); test: SPR (Carterra MX96), antibody on chip, His-tagged human PD-L1 injected
T2 construct: not shown: His tag
T2 sequence (Q9NZQ7 19-238 limits assumed): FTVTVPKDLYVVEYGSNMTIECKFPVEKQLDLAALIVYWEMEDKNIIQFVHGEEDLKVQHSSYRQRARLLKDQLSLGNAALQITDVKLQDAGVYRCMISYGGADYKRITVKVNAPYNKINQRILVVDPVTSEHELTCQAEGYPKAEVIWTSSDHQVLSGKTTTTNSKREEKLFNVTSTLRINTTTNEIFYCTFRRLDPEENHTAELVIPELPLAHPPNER

[3] = molecular target: T2, purified recombinant His tagged human …; test: SPR KD; fold improvement, reference taken as parent mAb24
[4] = molecular target: T3, cyno PD-L1 expressed on cells (cynomolgus); test: cell binding titration, HEK cells expressing cyno PD-L1
T3 construct: whole, on cells; also called cynomolgus PD-L1

[5] = molecular target: T3, cyno PD-L1 expressed on cells; test: cell binding EC50 on HEK-cyno PD-L1; fold improvement, reference taken as parent mAb24
[6] = molecular target: T4, human PD-L1 expressed on cells (human, UniProt Q9NZQ7 19-290); test: cell binding titration, HEK cells expressing human PD-L1
T4 construct: also called huPDL1; human PD-L1 on HEK cells
T4 sequence (Q9NZQ7 19-290 limits assumed): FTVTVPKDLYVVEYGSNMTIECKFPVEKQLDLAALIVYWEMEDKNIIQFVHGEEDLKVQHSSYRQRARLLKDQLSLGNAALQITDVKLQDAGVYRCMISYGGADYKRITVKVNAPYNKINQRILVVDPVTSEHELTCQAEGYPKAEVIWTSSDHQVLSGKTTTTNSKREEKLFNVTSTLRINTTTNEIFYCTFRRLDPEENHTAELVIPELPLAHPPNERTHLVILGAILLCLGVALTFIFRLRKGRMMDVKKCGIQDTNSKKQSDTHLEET

[7] = molecular target: T4, human PD-L1 expressed on cells; test: cell binding EC50 on HEK-human PD-L1; fold improvement, reference taken as parent mAb24
[8] = molecular target: T1, murine PD-L1 expressed on cells; test: cell binding EC50 on A20-murine PD-L1; fold improvement, reference taken as parent mAb24
[9] = molecular target: T4, human PD-L1 expressed on cells; test: cell binding titration (MFI); binder and target taken from the legend paragraph 94 and paragraph 377 (parental clone mAb1, CHO cells expressing human PD-L1); the panel itself prints 'mAb28' and 'CHO/HuPD-1'
[10] = molecular target: T3, cyno PD-L1 expressed on cells; test: cell binding titration (MFI); binder and target taken from the legend paragraph 94 and paragraph 377 (parental clone mAb1, CHO cells expressing cynomolgus PD-L1); the panel itself prints 'mAb28' and 'CHO/CyPD-1'
[11] = molecular target: T5, human PD-1 expressed on cells (human, UniProt Q15116 25-288); test: cell binding EC50 on CHO-human PD-1; fold improvement over parent mAb25
T5 construct: also called huPD-1; CHO cells expressing human PD-1
T5 sequence (Q15116 25-288 limits assumed): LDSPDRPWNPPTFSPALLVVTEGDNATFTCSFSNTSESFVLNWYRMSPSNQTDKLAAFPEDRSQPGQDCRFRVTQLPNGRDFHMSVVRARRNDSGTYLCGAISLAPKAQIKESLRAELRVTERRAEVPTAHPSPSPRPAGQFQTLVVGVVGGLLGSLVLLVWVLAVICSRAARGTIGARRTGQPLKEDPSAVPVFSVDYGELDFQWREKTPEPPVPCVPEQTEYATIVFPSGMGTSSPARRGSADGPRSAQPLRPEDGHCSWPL

[12] = molecular target: T5, human PD-1 expressed on cells; test: cell binding titration (MFI) on CHO cells expressing human PD-1, panel titled 'Cell Binding: CHO/HuPD-1'
[13] = molecular target: T6, purified recombinant His tagged human PD-1 (human, UniProt Q15116 25-170); test: SPR (Carterra MX96), antibody on chip, His-tagged human PD-1 injected
T6 construct: not shown: His tag
T6 sequence (Q15116 25-170 limits assumed): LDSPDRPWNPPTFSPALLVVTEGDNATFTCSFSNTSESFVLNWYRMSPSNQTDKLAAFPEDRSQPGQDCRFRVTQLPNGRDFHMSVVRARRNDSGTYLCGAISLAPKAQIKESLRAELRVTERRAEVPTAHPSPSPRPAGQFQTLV

[14] = molecular target: T7, murine PD-1 expressed on cells (murine, UniProt Q02242 25-288); test: cell binding titration (MFI) on CHO cells expressing mouse PD-1, panel titled 'Cell Binding: CHO/MsPD-1'
T7 construct: whole, on cells; also called muPD-1; mouse PD-1
T7 sequence (looked up): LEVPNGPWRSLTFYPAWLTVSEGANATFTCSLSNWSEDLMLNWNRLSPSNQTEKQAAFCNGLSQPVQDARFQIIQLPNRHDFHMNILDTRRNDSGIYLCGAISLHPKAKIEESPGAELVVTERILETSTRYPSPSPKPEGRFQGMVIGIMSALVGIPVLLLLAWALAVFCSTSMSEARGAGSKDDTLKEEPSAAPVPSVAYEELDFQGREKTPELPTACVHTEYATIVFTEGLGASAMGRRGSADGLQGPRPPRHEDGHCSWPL

[15] = molecular target: T8, cyno PD-1 expressed on cells (cynomolgus); test: cell binding titration (MFI) on CHO cells expressing cynomolgus PD-1, panel titled 'Cell Binding: CHO/CyPD-1'
T8 construct: whole, on cells; also called cyPD-1; cynomolgus PD-1

[16] = molecular target: T7, murine PD-1 expressed on cells; test: cell binding titration, CHO cells expressing murine PD-1
[17] = molecular target: T8, cyno PD-1 expressed on cells; test: cell binding titration, CHO cells expressing cyno PD-1
[18] = molecular target: T8, cyno PD-1 expressed on cells; test: cell binding EC50 on CHO-cyno PD-1; fold improvement over parent mAb25
[19] = molecular target: T6, purified recombinant His tagged human …; test: SPR KD; fold improvement over parent mAb25
[20] = molecular target: T5, human PD-1 expressed on cells; test: cell binding titration, CHO cells expressing human PD-1

T1 sequence (Q9EP73 19-290): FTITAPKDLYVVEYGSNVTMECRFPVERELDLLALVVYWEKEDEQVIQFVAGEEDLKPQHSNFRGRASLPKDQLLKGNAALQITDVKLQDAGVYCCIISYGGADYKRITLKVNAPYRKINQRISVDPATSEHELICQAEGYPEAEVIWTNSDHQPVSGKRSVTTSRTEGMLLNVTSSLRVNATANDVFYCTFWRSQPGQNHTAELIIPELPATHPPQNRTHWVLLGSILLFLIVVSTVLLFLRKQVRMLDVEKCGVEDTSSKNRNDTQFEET

B1: mAb8 (antibody, V domains shown)
VH: QVQLVQSGAEVKKPGSSVKVSCKASGGTFSSYAINWVRQAPGQGLEWMGGIIPVFGTATYAQKFQGRVTITADESTSTAYMELSSLRSEDTAVYYCARLKFELKDAFDIWGQGTLVTVSS
VL: not shown
[1]
  binding result: no binding
[2]
  Kd: 3.7 nM
[3]
  Fold Improvement: 1.2 fold
[4]
  EC50: 0.08 nM
[5]
  Fold Improvement: 3.42 fold

B2: mAb10 (antibody, V domains shown)
VH: QVQLVQSGAEVKKPGSSVKVSCKASGGTFSSYAINWVRQAPGQGLEWMGGIIPVFGTATYAQKFQGRVTITADESTSTAYMELSSLRSEDTAVYYCARLKNELKDAFDIWGQGTLVTVSS
VL: not shown
[1]
  binding result: no binding
[2]
  Kd: 6.3 nM
[3]
  Fold Improvement: 0.7 fold
[6]
  EC50: 0.04 nM
[7]
  Fold Improvement: 3.2 fold
[4]
  EC50: 0.09 nM
[5]
  Fold Improvement: 3.05 fold

B3: mAb20 (antibody, V domains shown)
VH: QVQLVQSGAEVKKPGSSVKVSCKASGGTFSSYAINWVRQAPGQGLEWMGGIIPIFGKATYAQKFQGRVTITADESTSTAYMELSSLRSEDTAVYYCARRKGELKDAFDIWGQGTLVTVSS
VL: not shown
[1]
  EC50: 2.66 nM
[2]
  Kd: 53.9 nM
[8]
  Fold Improvement: 1.47 fold
[3]
  Fold Improvement: 0.1 fold
[6]
  EC50: 0.13 nM
[7]
  Fold Improvement: 1 fold
[4]
  EC50: 0.12 nM
[5]
  Fold Improvement: 2.31 fold

B4: mAb6 (antibody, V domains shown)
VH: QVQLVQSGAEVKKPGSSVKVSCKASGGTFSSYAINWVRQAPGQGLEWMGGIIPIFGIANYAQKFQGRVTITADESTSTAYMELSSLRSEDTAVYYCARLKGELKDAFDIWGQGTLVTVSS
VL: not shown
[1]
  binding result: no binding
[2]
  Kd: 35.9 nM
[3]
  Fold Improvement: 0.1 fold
[6]
  EC50: 0.13 nM
[7]
  Fold Improvement: 1.1 fold
[4]
  EC50: 0.47 nM
[5]
  Fold Improvement: 0.61 fold

B5: mAb3 (antibody, V domains shown)
VH: QVQLVQSGAEVKKPGSSVKVSCKASGGTFSSYAINWVRQAPGQGLEWMGGIIPVFGTATYAQKFQGRVTITADESTSTAYMELSSLRSEDTAVYYCARLKGELKDAFDIWGQGTMVTVSS
VL: not shown
[1]
  EC50: 1.27 nM
[2]
  Kd: 0.9 nM
[8]
  Fold Improvement: 3.08 fold
[3]
  Fold Improvement: 4.8 fold
[6]
  EC50: 0.11 nM
[7]
  Fold Improvement: 1.3 fold

B6: mAb9 (antibody, V domains shown)
VH: QVQLVQSGAEVKKPGSSVKVSCKASGGTFSSYAINWVRQAPGQGLEWMGGIIPVFGTATYAQKFQGRVTITADESTSTAYMELSSLRSEDTAVYYCARLKGELKDAFDEWGQGTLVTVSS
VL: not shown
[1]
  binding result: no binding
[2]
  Kd: 5.4 nM
[3]
  Fold Improvement: 0.8 fold
[6]
  EC50: 0.06 nM
[7]
  Fold Improvement: 2.5 fold
[4]
  EC50: 0.07 nM
[5]
  Fold Improvement: 4.15 fold

B7: mAb2 (antibody, V domains shown)
VH: QVQLVQSGAEVKKPGSSVKVSCKASGGTFSSYAINWVRQAPGQGLEWMGGIIPVFGTATYAQKFQGRVTITADESTSTAYMELSSLRSEDTAVYYCARLKGELKDAFDIWGQGTMVTVSS
VL: not shown
[1]
  EC50: 2 nM
[2]
  Kd: 2.2 nM
[8]
  Fold Improvement: 1.96 fold
[3]
  Fold Improvement: 2 fold
[6]
  EC50: 0.06 nM
[7]
  Fold Improvement: 2.2 fold
[4]
  EC50: 0.08 nM
[5]
  Fold Improvement: 3.76 fold

B8: mAb1 (antibody, V domains shown)
VH: QVQLVQSGAEVKKPGSSVKVSCKASGGTFSSYAINWVRQAPGQGLEWMGGIIPILGAATYAQKFQGRVTITADESTSTAYMELSSLRSEDTAVYYCARLKGELKDAFDIWGQGTLVTVSS
VL: not shown
notes: also called parental clone mAb1; anti-PD-L1 antibody mAb1
[1]
  EC50: 0.74 nM
[2]
  Kd: 4.16 nM
[8]
  Fold Improvement: 5.26 fold
[3]
  Fold Improvement: 1.1 fold
[6]
  EC50: 0.04 nM
[9]
  EC50 (read off the curve): ~0.1 nM
[7]
  Fold Improvement: 3.3 fold
[4]
  EC50: 0.09 nM
[5]
  Fold Improvement: 3.21 fold
[10]
  EC50 (read off the curve): ~0.04 nM

B9: mAb18 (antibody, V domains shown)
VH: QVQLVQSGAEVKKPGSSVKVSCKASGGTFSSYAINWVRQAPGQGLEWMGGIIPILGTATYAQKFQGRVTITADESTSTAYMELSSLRSEDTAVYYCARRKGELKDAFDIWGQGTLVTVSS
VL: not shown
[1]
  EC50: 0.84 nM
[2]
  Kd: 527 nM
[8]
  Fold Improvement: 4.67 fold
[6]
  EC50: 0.38 nM
[7]
  Fold Improvement: 0.4 fold
[4]
  EC50: 0.06 nM
[5]
  Fold Improvement: 4.96 fold

B10: mAb22 (antibody, V domains shown)
VH: QVQLVQSGAEVKKPGSSVKVSCKASGGTFSSYAINWVRQAPGQGLEWMGGIIPVFGTATYAQKFQGRVTITADESTSTAYMELSSLRSEDTAVYYCARLKGELKDAFDIWGQGTMVTVSS
VL: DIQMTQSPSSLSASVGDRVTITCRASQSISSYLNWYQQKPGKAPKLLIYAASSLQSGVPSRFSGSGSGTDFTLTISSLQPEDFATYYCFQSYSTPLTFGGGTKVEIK
[1]
  binding result: no binding
[2]
  Kd: 2.5 nM
[3]
  Fold Improvement: 1.8 fold
[6]
  EC50: 0.18 nM
[7]
  Fold Improvement: 0.8 fold
[4]
  EC50: 0.32 nM
[5]
  Fold Improvement: 0.89 fold

B11: mAb5 (antibody, V domains shown)
VH: QVQLVQSGAEVKKPGSSVKVSCKASGGTFSSYAFSWVRQAPGQGLEWMGGIIPVFGTATYAQKFQGRVTITADESTSTAYMELSSLRSEDTAVYYCARLKGELKDAFDIWGQGTLVTVSS
VL: not shown
[1]
  binding result: no binding
[2]
  Kd: 27.1 nM
[3]
  Fold Improvement: 0.2 fold
[6]
  EC50: 0.09 nM
[7]
  Fold Improvement: 1.5 fold
[4]
  EC50: 0.39 nM
[5]
  Fold Improvement: 0.74 fold

B12: mAb28 (antibody, V domains shown)
VH: EVQLLESGGGLVQPGGSLRLSCAASGFTFSSYAMLWVRQAPGKGLEWVSAISNSGTYTYYADSVKGRFTISRDNSKNTLYLQMNSLRAEDTAVYYCARGLDFIVGYTGNDYWGQGTLVTVSS
VL: not shown
notes: also called parental clone mAb28; anti-PD-1 IgG1 antibody (mAb28)
[11]
  Fold improvement over Parent: 0.2 fold
[12]
  EC50 (read off the curve): ~0.6 nM
[13]
  Kd: 5.6 nM
[14]
  EC50 (read off the curve): ~0.3 nM
[15]
  EC50 (read off the curve): ~0.4 nM
[16]
  EC50: 0.814 nM
[17]
  EC50: 1.48 nM
[18]
  Fold improvement over Parent: 5.8 fold
[19]
  Fold improvement over Parent: 43 fold
[20]
  EC50: 3.94 nM

B13: mAb37 (antibody, V domains shown)
VH: EVQLLESGGGLVQPGGSLRLSCAASGFTFRSYAMSWVRQAPGKGLEWVSAISNSGTYTYYADSVKGRFTISRDNSKNTLYLQMNSLRAEDTAVYYCARGLDFIVGRTGNDYWGQGTLVTVSS
VL: not shown
[11]
  Fold improvement over Parent: 1.2 fold
[13]
  Kd: 14 nM
[16]
  EC50: 0.942 nM
[17]
  EC50: 1.09 nM
[18]
  Fold improvement over Parent: 7.9 fold
[19]
  Fold improvement over Parent: 17 fold
[20]
  EC50: 0.75 nM

B14: mAb34 (antibody, V domains shown)
VH: EVQLLESGGGLVQPGGSLRLSCAASGFTFSNYAMSWVRQAPGKGLEWVSAISNSGTYTYYADSVKGRFTISRDNSKNTLYLQMNSLRAEDTAVYYCARGLDFIVGATGNDYWGQGTLVTVSS
VL: not shown
[11]
  Fold improvement over Parent: 0.2 fold
[13]
  Kd: 7.2 nM
[16]
  EC50: 20.5 nM
[17]
  EC50: 1.33 nM
[18]
  Fold improvement over Parent: 6.5 fold
[19]
  Fold improvement over Parent: 33 fold
[20]
  EC50: 3.87 nM
